From US20200123265A1 (AGENUS, published 2020)
Changes are numbered by the printed parent chain. Names and notes keep the numbering of the source.

T1: V1M/Q62P/S63G cynomolgus GITR, expressed on 1624-5 cells (cynomolgus, UniProt Q9Y5U5 26-241 (human entry))
T1 construct: V1M lies in the signal peptide and is left out with it; also called mutant cynomolgus GITR V1M/Q62P/S63G
T1 chain: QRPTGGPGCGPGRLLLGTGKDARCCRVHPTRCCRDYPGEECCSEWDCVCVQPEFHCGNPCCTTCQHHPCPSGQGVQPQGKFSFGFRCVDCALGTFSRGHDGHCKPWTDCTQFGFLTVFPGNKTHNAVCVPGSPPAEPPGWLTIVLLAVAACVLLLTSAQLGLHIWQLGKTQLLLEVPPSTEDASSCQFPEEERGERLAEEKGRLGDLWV

T2: GITR antigen (R&D systems, disulfide-linked homodimer; 689-GR) (human, UniProt Q9Y5U5 26-161, R-PE labeled in the Luminex assay; amine-coupled to a CM5 chip in the SPR assay)
T2 construct: Bought reagent; also called R-PE labeled GITR antigen
T2 sequence (looked up): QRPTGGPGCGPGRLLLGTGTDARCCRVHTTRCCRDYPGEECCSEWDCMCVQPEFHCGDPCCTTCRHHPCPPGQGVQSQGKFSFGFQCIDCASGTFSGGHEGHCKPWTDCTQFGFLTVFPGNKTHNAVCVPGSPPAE

T3: V1M cynomolgus GITR, expressed on 1624-5 cells (cynomolgus, UniProt Q9Y5U5 26-241 (human entry))
T3 chain: T1 chain with P37Q, G38S

T4: human GITR G63A mutant, expressed on 1624-5 cells (human, UniProt Q9Y5U5 26-241)
T4 chain: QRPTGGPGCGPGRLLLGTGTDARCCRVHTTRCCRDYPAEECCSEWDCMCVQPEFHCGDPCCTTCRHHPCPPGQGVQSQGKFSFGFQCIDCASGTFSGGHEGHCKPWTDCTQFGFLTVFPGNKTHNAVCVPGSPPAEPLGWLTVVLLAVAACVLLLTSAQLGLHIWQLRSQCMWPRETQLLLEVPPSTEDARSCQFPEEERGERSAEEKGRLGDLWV

T5: human GITR D60A mutant, expressed on 1624-5 cells (human, UniProt Q9Y5U5 26-241)
T5 chain: T4 chain with D35A, A38G

B1: chimeric parental 231-32-15 antibody (antibody, V domains shown)
VH: QVQLLQSGTELVRPGVSVKISCKGSGYTFTDYAMYWVKQSHAKSLEWIGVIRTYSGDVTYNQKFKDKATMTVDKSSSIAYMELARLSSEDSAIYYCAKSGTVRGFAYWGQGTLVTVSS
VL: DIVMTQSPSSLTVTAGEKVIMSCKSSQSLLNSGNQKNYLTWYQQKPGQPPKLLIYWASTRESGVPDRFTGSGSGTDFTLTISSVQAEDLAVYHCQNDYSYPYTFGGGTKLEIK
notes: elsewhere it was used as soluble antibody
B2: pab1876 (antibody, human IgG1, V domains shown)
VH: QVQLVQSGAEVKKPGASVKVSCKGSGYTFTDYAMYWVRQAPGQGLEWIGVIRTYSGDVTYNQKFKDRATMTVDKSISTAYMELSRLRSDDTAVYYCAKSGTVRGFAYWGQGTLVTVSS
VL: DIVMTQSPDSLAVSLGERATINCKSSQSLLNSGNQKNYLTWYQQKPGQPPKLLIYWASTRESGVPDRFSGSGSGTDFTLTISSLQAEDVAVYHCQNDYSYPYTFGQGTKLEIKR
notes: Human IgG1 with T109S (Kabat) in the light chain constant domain
B3: pab1875 (antibody, V domains shown)
VH: B2 VH
VL: DIVMTQSPPTLSLSPGERVTLSCKSSQSLLNSGNQKNYLTWYQQKPGQAPRLLIYWASTRESGIPARFSGSGSGTDFTLTISSLQPEDFAVYHCQNDYSYPYTFGQGTKLEIK
B4: m6C8 (antibody, V domains shown)
VH: QVTLKESGPGILKPSQTLSLTCSFSGFSLSTSGMGVGWIRQPSGKGLEWLAHIWWDDDKYYNPSLKSQLTISKDTSRNQVFLKITSVDTADAATYYCARTRRYFPFAYWGQGTLVTVSS
VL: DIVMTQSQKFMSTSVGDRVSVTCKASQNVGTNVAWYQQKPGQSPKALIYSASYRYSGVPDRFTGSGSGTDFTLTINNVHSEDLAEYFCQQYNTDPLTFGAGTKLEIK
notes: Generated based on the variable regions of antibody 6C8 of WO 06/105021; also called murine antibody 6C8

Assays:
[1] = target: T1, V1M/Q62P/S63G cynomolgus GITR, …; assay: flow cytometry on 1624-5 cells, 2 µg/ml
Description: (§1) As further evidence for the binding characteristics of the anti-GITR antibodies, the binding of the antibodies to cynomolgus GITR was compared. The immature protein of cynomolgus GITR comprises the amino acid sequence of SEQ ID NO: 44. To increase protein expression, the first residue of the signal peptide of cynomolgus GITR was replaced by methionine, generating V1M cynomolgus GITR. A mutant cynomolgus GITR V1M/Q62P/S63G, where the amino acid residues at the positions 62 and 63 (GlnSer), numbered according to SEQ ID NO: 44, were replaced by the corresponding residues in human GITR (ProGly), was then generated. FIG. 7A is a sequence alignment between human GITR, V1M cynomolgus GITR, and V1M/Q62P/S63G cynomolgus GITR.

[2] = target: T2, GITR antigen (R&D systems, …); assay: SPR (BIAcore), GITR immobilized on CM5 chip, antibody at 300 nM, in tandem binning
Procedure: (§2) For epitope binning using surface plasmon resonance the “in tandem approach” was used (Abdiche, Y N et al., Analytical Biochemistry 386: 172-180 (2009)). For that purpose different chip surfaces were generated on a CM5 sensor chip (GE Healthcare, Series S CM5, BR-1005-30) using immobilization of different densities of GITR antigen (R&D systems, disulfide-linked homodimer; 689-GR). Flow cell 2 contained GITR antigen in low density (667 RU), medium density was assessed in flow cell 3 (1595 RU) and in flow cell 4, high density was achieved (4371 RU). In flow cell 1, ovalbumin (1289 RU, Pierce ThermoFisher 77120) was immobilized for reference. Immobilization was performed according to a standard protocol from the manufacturer (GE Healthcare) for amine coupling (activation of surface with 0.4 M EDC and 0.1 M NHS, GE Healthcare Amine coupling kit, BR-1000-50). Unreacted groups were inactivated with 1 M ethanol-amine-HCA, pH8.5. Afterwards anti-GITR antibodies were run through the different surfaces at a concentration of 300 nM (45 μg/ml) for 240 seconds at 5 μl/min. […] A dissociation time of 60 seconds was included before adding the competing antibody (300 nM, 5 μl/min).

[3] = target: T3, V1M cynomolgus GITR, expressed on …; assay: flow cytometry on 1624-5 cells
Description: as §1

[4] = target: T4, human GITR G63A mutant, expressed on …; assay: flow cytometry on 1624-5 cells, 2 µg/ml, MFI ratio (monoclonal/polyclonal) of mutant against wild type
Procedure: (§3) All the mean fluorescence intensity (MFI) values were calculated as the mean of two measurements.
(§4) The percentages shown in FIG. 6B are the percentages of GITR positive cells in each plot.

[5] = target: T5, human GITR D60A mutant, expressed on …; assay: as above
Procedure: as §3, §4

[6] = target: T2, GITR antigen (R&D systems, …); assay: Luminex suspension array, 20 µg/ml competitor pre-incubated with R-PE labeled GITR; captured antibody 231-32-15
Procedure: The bead mixture and the antigen/antibody mixture were mixed 1:1 (20 μl from each) and incubated for one additional hour under shaking conditions (20° C., 650rpm), Directly before the measurement, 40 μl of assay buffer was added to each well and analysis was performed using a Luminex® 200 system (Millipore) and a readout of 100 beads in 48 μl sample volume. Binding was determined using the […] values of the non-competed control (100% binding, only assay buffer as competing compound).

[7] = target: T2, GITR antigen (R&D systems, …); assay: SPR (BIAcore), GITR immobilized on CM5 chip, antibody at 300 nM, applied after 231-32-15
Procedure: as §2

| Binder | binding result [1] | binding result [2] | binding result [3] | percentage of reduction in binding relative to wild type GITR [4] [%] | percentage of reduction in binding relative to wild type GITR [5] [%] | binding result [6] | binding result [7] | percentage of increase in binding relative to wild type GITR [4] [%] |
| --- | --- | --- | --- | --- | --- | --- | --- | --- |
| B1 | binds | binds | no binding (tested: 2 µg/ml) | 37 | 82 |  |  |  |
| B2 | binds |  | no binding (tested: 2 µg/ml) | 59 | 88 | binds |  |  |
| B3 |  |  |  |  |  | binds |  |  |
| B4 |  |  |  |  | 10 |  | binds | 62 |
